Measured values as given in PMC5309844.

Biological target: full-length recombinant human NR1 protein (human) (UniProt Q05586)

Sequence of recombinant human PDI (P07237 18-508): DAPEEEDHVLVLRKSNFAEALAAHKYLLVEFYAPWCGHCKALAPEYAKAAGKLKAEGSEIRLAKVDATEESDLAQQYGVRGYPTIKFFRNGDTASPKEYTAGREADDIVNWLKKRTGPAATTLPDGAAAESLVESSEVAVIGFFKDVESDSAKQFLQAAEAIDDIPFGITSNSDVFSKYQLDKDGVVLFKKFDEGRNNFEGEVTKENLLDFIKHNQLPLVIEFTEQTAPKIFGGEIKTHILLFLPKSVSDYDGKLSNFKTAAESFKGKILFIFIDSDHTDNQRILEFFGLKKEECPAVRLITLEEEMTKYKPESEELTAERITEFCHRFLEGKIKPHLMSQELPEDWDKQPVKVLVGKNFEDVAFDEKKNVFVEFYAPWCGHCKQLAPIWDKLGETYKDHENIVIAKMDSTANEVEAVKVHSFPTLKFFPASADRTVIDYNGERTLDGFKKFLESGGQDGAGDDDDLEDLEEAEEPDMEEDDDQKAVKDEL

Substance: recombinant human PDI (from UniProt P07237 18-508) (enzyme)
- amount of thiols on recombinant NR1 protein after 2 h with recombinant PDI at room temperature (in vitro thiol reductase assay, modified biotin switch and Western blot), against vehicle: 3.2 fold
